In patent US8642834B2, “Methods for the identification of agents that inhibit mesenchymal-like tumor cells or their formation” (OSI Pharmaceuticals, LLC, priority 2009, dated 2014):

B1: BMP4: bone morphogenetic protein 4, R&D systems, 100 ng/ml (protein, UniProt P12644 293-408, looked up)
Bone morphogenetic protein 4: SPKHHSQRARKKNKNCRRHSLYVDFSDVGWNDWIVAPPGYQAFYCHGDCPFPLADHLNSTNHAIVQTLVNSVNSSIPKACCVPTELSAISMLYLDEYDKVVLKNYQEMVVEGCGCR
B2: BMP7: bone morphogenetic protein 7, R&D systems, 100 ng/ml (protein, UniProt P18075 293-431, looked up)
Bone morphogenetic protein 7: STGSKQRSQNRSKTPKNQEALRMANVAENSSSDQRQACKKHELYVSFRDLGWQDWIIAPEGYAAYYCEGECAFPLNSYMNATNHAIVQTLVHFINPETVPKPCCAPTQLNAISVLYFDDSSNVILKKYRNMVVRACGCH
B3: IL-33: Interleukin-33, Peprotech, 50 ng/ml (protein, UniProt O95760 1-270, looked up)
Interleukin-33: MKPKMKYSTNKISTAKWKNTASKALCFKLGKSQQKAKEVCPMYFMKLRSGLMIKKEACYFRRETTKRPSLKTGRKHKRHLVLAACQQQSTVECFAFGISGVQKYTRALHDSSITGISPITEYLASLSTYNDQSITFALEDESYEIYVEDLKKDEKKDKVLLSYYESQHPSNESGDGVDGKMLMVTLSPTKDFWLHANNKEHSVELHKCEKPLPDQAFFVLHNMHSNCVSFECKTDPGVFIGVKDNHLALIKVDSSENLCTENILFKLSET
B4: CTGF: Connective tissue growth factor, Peprotech, 20 ng/ml (protein, UniProt P29279 27-349, looked up)
CCN family member 2: QNCSGPCRCPDEPAPRCPAGVSLVLDGCGCCRVCAKQLGELCTERDPCDPHKGLFCHFGSPANRKIGVCTAKDGAPCIFGGTVYRSGESFQSSCKYQCTCLDGAVGCMPLCSMDVRLPSPDCPFPRRVKLPGKCCEEWVCDEPKDQTVVGPALAAYRLEDTFGPDPTMIRANCLVQTTEWSACSKTCGMGISTRVTNDNASCRLEKQSRLCMVRPCEADLEENIKKGKKCIRTPKISKPIKFELSGCTSMKTYRAKFCGVCTDGRCCTPHRTTTLPVEFKCPDGEVMKKNMMFIKTCACHYNCPGDNDIFESLYYRKMYGDMA

system: CFPAC-1 cells; test: Induction of EMT by growth factors and cytokines, E-cadherin and vimentin immunoblotting; format: cell-based, human; conditions: CFPAC-1 cells treated 7 days with ligand
Protocol: The CFPAC1 cell line was cultured in DMEM media (Gibco #11960) supplemented with 10% FBS (Sigma), 2 mM L Glutamine (Gibco), at 37° C., 5% CO2. For 7 day treatments, cells were seeded on tissue culture plastic in complete growth media and allowed to attach overnight at cell densities that would provide approximately 60-80% confluence at end of experiment. Ligand and/or inhibitor was added the following day (Day 0) in complete growth media and incubated at 37° C., 5% CO2. Ligand source and concentrations used are as follows: [1] From R&D systems, SDF-1α (stromal derived factor-1 alpha) at 100 ng/ml, TRANCE (TNF-related activation induced cytokine) at 50 ng/ml, FGF1 (fibroblast growth factor acidic) at 10 ng/ml, FGF2 (fibroblast growth factor basic) at 10 ng/ml, BMP4 (bone morphogenetic protein 4) at 100 ng/ml, BMP7 (bone morphogenetic protein 7) at 100 ng/ml, IGF2 (insulin-like growth factor 2) at 100 ng/ml, OSM (Oncostatin M) at 100 ng/ml, NRG1 (Neuregulin-1) at 50 ng/ml, PDGFaa (Platelet derived growth factor a) at 50 ng/ml, PDGFbb (platelet derive growth factor b) at 30 ng/ml, Ang2 (Angiopoeitin 2) at 400 ng/ml, amphiregulin at 100 ng/ml, HMGB 1 (Human high-mobility group box 1 protein) at 50 ng/ml; [2] From Genscript, LIF (Leukemia inhibitory factor) at 20 ng/ml, GM-CSF (Granulocyte macrophage colony stimulating factor) at 25 ng/ml, M-CSF (Macrophage colony stimulating factor) at 50 ng/ml; [3] From Anaspec, PAR1 (Protease activated receptor 1 agonist) at 100 μM; PAR2 (Protease activated receptor 2 agonist; peptide SLIGKV-NH2, Cat. No. 60217-1) at 100 μM; PAR4 (Protease activated receptor […] agonist; peptide AYPGKF-NH2, Cat. No. 60218-1) at 100 μM; [4] From Peprotech, HGF (Hepatocyte Growth Factor) at 100 ng/ml; IL-31 (Interleukin-31) at 50 ng/ml, IL-33 (Interleukin-33) at 50 ng/ml, IL1-a (Interleukin-1 alpha) at 10 ng/ml, CTGF (Connective tissue growth factor) at 20 ng/ml, WISP1 (Wnt-1 inducible signaling pathway protein) at 20 ng/ml, PTHrP ([…] hormone-related protein) at 50 ng/ml, MCP1 (monocyte chemotactic protein-1) at 50 ng/ml; and [5] from Sigma, Fulvestrant at 1 μM. Fresh medium containing ligand and/or inhibitor was added 3-4 days after initial dose, and at Day 7 cells were harvested for western blot analysis.
Cells were harvested by washing once with PBS, and lysing on ice for 10 minutes with scraping (using a Cell Lifter, Corning Inc. #3008) in ice cold RIPA buffer (Sigma R0278) containing Protease inhibitor (Sigma P8340), Phosphatase inhibitors (Sigma P2850, P5726) and 200 μM Sodium Vanadate. Supernatents were micro-centrifuged at max speed, 4° C. for 10 minutes. Protein content was quantitated using the BCA method (Pierce #23225) and samples were normalized to total protein in Laemli buffer and heated at 100° C. for 10 minutes. SDS PAGE was run using a Bis-Tris gel system (Invitrogen NuPAGE) with MOPS buffer (Invitrogen NP0001), transferred onto nitrocellulose using the iBLOT system (Invitrogen) and blocked in PBS-T (0.1% Tween 20), 5% non-fat milk or BSA in guidance with primary Ab supplier requirements. All primary antibodies were incubated overnight at 4° C. in PBS-T (0.1% Tween 20) in either 5% non-fat milk or BSA, diluted to the following working dilutions: anti E Cadherin (Santa Cruz #sc-21791) 1:500 dilution; anti Vimentin (BD Biosciences #550513) 1:2000 dilution;); anti GAPDH HRP conjugate (Santa Cruz sc-25778) 1:1000 dilution; anti β-Actin (Sigma, A5441) 1:10,000 dilution. […]

Molecule	Induction of EMT (E-cadherin down, vimentin up)
B1	Partial EMT
B2	Partial EMT
B3	Partial EMT
B4	Partial EMT
